From the supplement of paper PMC10567573

B1: SLC35F2 (parent)
chain: QYLAERYKVNTPMLQSFINYCLLF

Variants of: B1
Experiment: protein stability index of a GFP-peptide fusion (GPS, HEK-293T) (PSI 1-6); higher = more stable
Conditions: c terminus: a fixed tail appended
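Note: lentivirally expressed fusions sorted by FACS into six bins by GFP to DsRed ratio, PSI derived from sequencing read proportions per bin multiplied by bin number.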

Protein stability index, by site and new letter:
Q15: E 3.23 | G 3.36 | L 3.28 | D 3.24 | M 2.15 | P 3.78 | T 3.41 | A 2.71 | R 2.29 | N 2.61 | W 2.83 | S 3.63 | C 2.95 | H 2.23 | V 2.86 | I 1.67 | Y 3.21 | K 1.28 | F 3.17
Y20: A 3.18 | D 1.81 | H 2.97 | E 2.09 | F 3.1 | C 2.64 | G 2.35
L3: M 2.5 | R 2.98 | I 3.32 | T 2.7 | C 2.93 | Y 2.34 | K 2.43 | N 2.71 | Q 2.94 | D 3 | A 3.3 | P 3.5 | E 1.45 | F 3.46 | H 2.5 | G 2.92 | S 2.5 | V 2.34
Y7: I 2.21 | H 2.95 | T 2.19 | R 1.55 | P 2.98 | K 2.53 | C 3.12 | D 2.49 | A 3.17 | E 2.03 | N 2.89 | S 2.48 | L 2.35 | W 1.84 | M 1.62 | Q 3.26 | G 3.27 | F 2.18 | V 2.92
L14: I 2.73 | V 2.31 | C 2.03 | N 2.12 | S 1.87 | D 2.82 | M 3.31 | K 2.38 | T 2.65 | F 1.69 | R 2.66 | Q 3.39 | E 2.45 | H 2.11 | Y 3.03 | W 2.4 | P 2.12 | A 2.37 | G 2.08
R6: S 2.94 | A 2.7 | Q 2.34 | C 2.86 | M 2.25 | P 3.62 | H 3.38 | K 2.42 | W 2.51 | I 2.56 | N 3.2 | Y 1.16 | G 2 | V 2.92 | L 2.11 | T 2.97 | E 2.72 | D 1.99
P12: N 2.72 | F 3.15 | H 3.1 | D 3.1 | E 2.52 | Q 1.7 | C 3.04 | G 2.73 | Y 3.33 | I 3.44 | A 4.77 | K 1.74 | T 2.54 | R 3.12 | M 3.68 | L 3.97 | S 2.35 | W 1.29
T11: G 2.28 | K 2.21 | S 2.65 | P 1.8 | A 2.13 | D 2.63 | Q 2.96 | V 2.5 | N 2.71 | L 2.89 | E 2.27 | M 2.69 | Y 3.51 | F 2.04 | I 2.6 | H 2.19 | C 3.08 | W 2.12 | R 2.57
I18: T 2.82 | A 1.93 | V 1.34 | C 3.62 | Y 2.15 | H 2.9 | G 1.92 | S 2.34 | E 2.75 | P 3.3 | R 3.24 | D 3.29 | Q 2.48 | L 2.96 | F 1.98 | M 2.56 | W 2.53 | N 2.1 | K 1.99
F17: N 2.12 | C 3.45 | D 1.82 | E 2.3 | I 3 | W 1.6 | Q 2.34 | R 3.78 | G 2.45 | S 3.47 | H 3.26 | P 1.8 | Y 2.14 | T 2.45 | A 1.76 | V 3.29 | K 2.65 | M 3.02
A4: T 3.02 | D 2.26 | G 3.01 | N 3.76 | F 1.83 | P 2.88 | L 3.42 | W 2.53 | V 3.22 | R 2.53 | H 1.99 | M 3.1 | C 3.16 | S 3.11 | K 3.59 | Y 2.38 | Q 2.56 | I 2.65 | E 2.76
N19: P 2.7 | V 2.75 | L 1.71 | E 2.22 | M 2.08 | A 3.55 | D 2.49 | Y 2.31 | T 2.51 | Q 3.31 | G 2.7 | H 2.18 | W 2.94 | R 2.35 | F 2.49 | K 2.56 | S 2.38 | I 1.48
N10: G 2.54 | I 2.88 | C 2.2 | A 2.09 | K 2.14 | V 2.92 | W 2.29 | D 2.83 | H 2.71 | F 2.88 | L 3.17 | E 2.2 | P 1.68 | M 2.96 | Y 2.75 | T 2.51 | S 2.36 | Q 1.87 | R 1.85
E5: W 2.54 | L 2.72 | D 2.88 | A 3.18 | V 4.14 | P 2.34 | Y 2.14 | S 2.14 | C 3.78 | M 4.24 | F 3.74 | K 1.96 | N 2.62 | H 3.1 | Q 2.72 | T 2.14 | I 3.06 | R 3.95 | G 2.03
M13: V 3.22 | W 1.9 | I 2.52 | D 2.2 | L 1.83 | R 2.64 | N 3.77 | E 2.99 | G 2.2 | S 2.93 | Y 2.4 | P 2.69 | F 2.34 | Q 2.02 | K 2.04 | C 3.76 | A 3.48 | T 2.74 | H 2.59
S16: Q 1.65 | L 3.45 | H 1.83 | A 2.43 | D 3 | I 3 | F 2.11 | N 2.36 | E 2.19 | Y 1.79 | V 3.01 | P 3.19 | K 2.76 | C 2.44 | W 1.87 | T 1.72 | R 2.63 | G 2.22
K8: S 3.15 | G 2.38 | N 2.22 | M 2.75 | Q 2.13 | T 2.43 | F 3.46 | W 2.55 | Y 3.27 | R 1.63 | V 2.61 | H 2.64 | A 2.54 | D 2.44 | C 3.39 | E 2.04 | L 2.87 | P 2.35
V9: K 2.37 | G 2.3 | C 2.68 | E 2.65 | A 1.65 | R 1.86 | N 2.23 | Q 2.87 | Y 2.06 | I 2.51 | F 3.49 | H 2.48 | S 2.58 | L 2.6 | W 1.98 | D 1.8 | M 2.54 | T 2.4 | P 2.24
Y2: N 2.61 | T 2.29 | P 1.74 | M 1.24 | R 2.1 | L 2.15 | S 2.08 | Q 1.97 | W 2.26 | V 2.59 | K 2.17
